Earlier results on one substance are cited in PMC8481289.

The series has as its target UFC1 (Homo sapiens) (UniProt Q9Y3C8).

UBA5, sequence (Q9GZZ9 whole entry): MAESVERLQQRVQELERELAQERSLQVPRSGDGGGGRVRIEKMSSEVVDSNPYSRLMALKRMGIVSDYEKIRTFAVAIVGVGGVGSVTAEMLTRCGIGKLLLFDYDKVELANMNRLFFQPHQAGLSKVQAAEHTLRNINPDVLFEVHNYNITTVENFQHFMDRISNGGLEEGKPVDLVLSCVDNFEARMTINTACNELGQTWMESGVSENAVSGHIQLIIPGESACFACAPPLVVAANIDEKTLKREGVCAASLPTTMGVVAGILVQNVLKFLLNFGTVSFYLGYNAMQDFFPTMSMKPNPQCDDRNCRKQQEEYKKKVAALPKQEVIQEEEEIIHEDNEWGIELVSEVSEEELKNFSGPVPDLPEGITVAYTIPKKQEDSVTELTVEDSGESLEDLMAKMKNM
UFC1 (Homo sapiens), sequence (Q9Y3C8 whole entry): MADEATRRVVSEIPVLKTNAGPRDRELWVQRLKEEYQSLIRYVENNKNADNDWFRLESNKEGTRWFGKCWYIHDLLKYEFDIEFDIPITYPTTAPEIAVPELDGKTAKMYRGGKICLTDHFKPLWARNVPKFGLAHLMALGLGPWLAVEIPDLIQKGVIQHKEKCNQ

As for UBA5 (from UniProt Q9GZZ9), the dissociation constant (Kd) was 1 µM.
